Laboratory results: patent US20190345225A1 (KEROS THERAPEUTICS, published 2019)
Residue numbers refer to the chain shown, from its start.

B1: extracellular ActRIIb variant (SEQ ID NO: 149) fused to the N-terminus of hFc through a GGG linker (Fc fusion)
chain: GRGEAETRECIFYNANWEKDRTNQSGLEPCYGDQDKRRHCFASWKNSSGTIELVKQGCWLDDINCYDRQECVAKKDSPEVYFCCCEGNFCNERFTHLPEAGGPEVTYEPPPTAPTGGG
notes: also called ActRIIb/a variant; ActRIIb/a; not shown: human Fc (hFc)
B2: extracellular ActRIIa/bΔ9 variant (SEQ ID NO: 58) fused to the N-terminus of hFc through a GGG linker (Fc fusion)
chain: GAILGRSETQECLFYNANWELDRTNQTGVERCEGEKDKRLHCYATWRNISGSIEIVKKGCWLDDFNCYDRTDCVETKENPQVYFCCCEGNMCNEKFSYFPEMEVTQPTSGGG
notes: also called ActRIIA/BΔ9-Fc; not shown: human Fc (hFc)
B3: ActRIIa/b+ (SEQ ID NO: 150) fused to the N-terminus of hFc through a GGG linker (Fc fusion)
chain: B2 chain with D22E, K57A, K77E
notes: also called ActRIIab+ variant; not shown: human Fc (hFc)
B4: extracellular ActRIIa/bΔ9 min variant (SEQ ID NO: 6) fused to the N-terminus of hFc through a GGG linker (Fc fusion)
chain: B2 chain with R31P, Y43F, R47K, F65I
notes: not shown: human Fc (hFc)
B5: extracellular ActRIIa/b variant (SEQ ID NO: 69) fused to the N-terminus of hFc through a GGG linker (Fc fusion)
chain: B2 chain with D22E, K77E
notes: also called ActRIIA/B-Fc; not shown: human Fc (hFc)
B6: ActRIIa/b-delta 9m3 (SEQ ID NO: 41) fused to the N-terminus of hFc through a GGG linker (Fc fusion)
chain: B2 chain with Y43F
notes: also called ActRIIa/bΔ9m3 variant; not shown: human Fc (hFc)
B7: ActRIIa/bmax1 (SEQ ID NO: 70) fused to the N-terminus of hFc through a GGG linker (Fc fusion)
chain: B2 chain with F14Y, D22E, K36Q, K77E
notes: also called ActRIIa/bmax1 variant; not shown: human Fc (hFc)
B8: ActRIIa/b-delta 9m2 (SEQ ID NO: 38) fused to the N-terminus of hFc through a GGG linker (Fc fusion)
chain: B2 chain with F65I
notes: also called ActRIIa/bΔ9m2 variant; not shown: human Fc (hFc)
B9: ActRIIa/b-delta 9m4 (SEQ ID NO: 44) fused to the N-terminus of hFc through a GGG linker (Fc fusion)
chain: B2 chain with R31P
notes: also called ActRIIa/bΔ9m4 variant; not shown: human Fc (hFc)
B10: ActRIIa/bmax2 (SEQ ID NO: 71) fused to the N-terminus of hFc through a GGG linker (Fc fusion)
chain: GAILGRSETQECLFYNANWELERTNQTGVERCEGEKDKRLHCYATWRNISGSIEIVKKGCWLDDFNCYDRTDCVETEENPQVYFCCCEGNMCNEKFSYFPEMEVTQPTSNPGGG
notes: also called ActRIIa/bmax2 variant; not shown: human Fc (hFc)
B11: ActRIIa/bmax3 variant (SEQ ID NO: 72) fused to the N-terminus of hFc through a GGG linker (Fc fusion)
chain: GAILGRSETQECLFYNANWELERTNQTGVERCEGEKDKRLHCYATWRNISGSIEIVKKGCWLDDFNCYDRTDCVETEENPQVYFCCCEGNMCNEKFSYFPEMEVTQPTSNPVTPKGGG
notes: not shown: human Fc (hFc)
B12: extracellular ActRIIa (SEQ ID NO: 73) fused to the N-terminus of hFc through a GGG linker (Fc fusion)
chain: AILGRSETQECLFFNANWEKDRTNQTGVEPCYGDKDKRRHCFATWKNISGSIEIVKQGCWLDDINCYDRTDCVEKKDSPEVYFCCCEGNMCNEKFSYFPEMEVTQPTSGGG
notes: also called ActRIIa (19-127); wild-type extracellular ActRIIa; not shown: human Fc (hFc)
B13: Activin A (ligand, UniProt P08476 311-426, looked up)
chain: GLECDGKVNICCKKQFFVSFKDIGWNDWIIAPSGYHANYCEGECPSHIAGTSGSSLSFHSTVINHYRMRGHSPFANLKSCCVPTKLRPMSMLYYDDGQNIIKKDIQNMIVEECGCS
B14: Activin B (ligand, UniProt P09529 293-407, looked up)
chain: GLECDGRTNLCCRQQFFIDFRLIGWNDWIIAPTGYYGNYCEGSCPAYLAGVPGSASSFHTAVVNQYRMRGLNPGTVNSCCIPTKLSTMSMLYFDDEYNIVKRDVPNMIVEECGCA
B15: growth differentiation factor 11 (GDF11) (ligand, UniProt O95390 299-407, looked up)
chain: NLGLDCDEHSSESRCCRYPLTVDFEAFGWDWIIAPKRYKANYCSGQCEYMFMQKYPHTHLVQQANPRGSAGPCCTPTKMSPINMLYFNDKQQIIYGKIPGMVVDRCGCS
B16: BMP-9 (ligand, UniProt Q9UK05 320-429, looked up)
chain: SAGAGSHCQKTSLRVNFEDIGWDSWIIAPKEYEAYECKGGCFFPLADDVTPTKHAIVQTLVHLKFPTKVGKACCVPTKLSPISVLYKDDMGVPTLKYHYEGMSVAECGCR
notes: also called bone morphogenetic protein 9

molecular target: B13; assay: SPR, Biacore 3000; receptor fusion captured on the chip by antibody, ligand run in a concentration series

B1: no binding.

molecular target: B14; assay: as above

B1: no binding.

molecular target: B15; assay: as above

B1: no binding.

molecular target: B13; assay: SPR, Biacore 3000; receptor fusion captured on chip, ligand in solution

Point of comparison: B4, Kd 0.31 nM. Against it:
- B2 — within 1.5-fold, 0.213 nM
- B3 — within 1.5-fold, 0.242 nM
- B5 — 1.7-fold higher, 0.542 nM
- B6 — 4.4-fold lower, 0.071 nM
- B7 — within 1.5-fold, 0.232 nM
- B8 — 1.8-fold lower, 0.17 nM
- B9 — within 1.5-fold, 0.375 nM
- B10 — 2.3-fold lower, 0.135 nM
- B11 — 3.5-fold lower, 0.089 nM
- B12 — 3.2-fold higher, 1 nM

molecular target: T1, extracellular ActRIIb (SEQ ID NO: 74) fused to the N-terminus of hFc through a GGG linker (human, UniProt Q13705 20-134); assay: as above
T1 construct: also called ActRIIb (41-155); wild-type extracellular ActRIIb; not shown: human Fc (hFc)
T1 sequence: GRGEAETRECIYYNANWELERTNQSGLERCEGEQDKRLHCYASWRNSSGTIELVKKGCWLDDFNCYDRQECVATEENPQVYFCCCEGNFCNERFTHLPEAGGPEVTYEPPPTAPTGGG

Point of comparison: B14, Kd 0.023 nM. Against it:
- B13 — 2.7-fold higher, 0.063 nM

molecular target: B12; assay: as above

Point of comparison: B15, Kd 0.081 nM. Against it:
- B16 — 310-fold higher, 25 nM

molecular target: B14; assay: as above

Point of comparison: B3, Kd 0.282 nM. Against it:
- B2 — 23-fold lower, 0.0123 nM
- B4 — 3.2-fold lower, 0.088 nM
- B5 — 2.7-fold lower, 0.103 nM
- B6 — 3.9-fold lower, 0.0725 nM
- B7 — 2.9-fold lower, 0.097 nM
- B8 — 2.7-fold lower, 0.104 nM
- B9 — within 1.5-fold, 0.254 nM
- B10 — 7.2-fold lower, 0.039 nM
- B11 — 6.6-fold lower, 0.043 nM
- B12 — within 1.5-fold, 0.373 nM

molecular target: B15; assay: as above

Point of comparison: B2, Kd 0.115 nM. Against it:
- B4 — within 1.5-fold, 0.114 nM
- B5 — 1.6-fold higher, 0.186 nM
- B6 — within 1.5-fold, 0.117 nM
- B7 — 2.1-fold higher, 0.236 nM
- B8 — 1.9-fold higher, 0.222 nM
- B9 — 3.4-fold higher, 0.394 nM
- B10 — within 1.5-fold, 0.113 nM
- B11 — 1.9-fold higher, 0.214 nM

molecular target: B16; assay: as above

Point of comparison: B5, Kd 4 nM. Against it:
- B2 — 2.5-fold higher, 10 nM
- B3 — 6.5-fold higher, 26 nM
- B4 — 4.2-fold higher, 17 nM
- B6 — 3.3-fold lower, 1.2 nM
- B7 — within 1.5-fold, 5.6 nM
- B8 — higher, 13 to 18 nM
- B9 — higher, 14 to 20 nM
- B10 — within 1.5-fold, 5 nM
- B11 — within 1.5-fold, 3.3 nM
